Experimental findings from IntAct's records for PubMed 16418290 are described below.

B1: Caspase recruitment domain-containing protein 6 (Homo sapiens), Q9BX69 (parent)
chain: MATESTPSEIIERERKKLLEILQHDPDSILDTLTSRRLISEEEYETLENVTDLLKKSRKLLILVQKKGEATCQHFLKCLFSTFPQSAAICGLRHEVLKHENTVPPQSMGASSNSEDAFSPGIKQPEAPEITVFFSEKEHLDLETSEFFRDKKTSYRETALSARKNEKEYDTPEVTLSYSVEKVGCEVPATITYIKDGQRYEELDDSLYLGKEEYLGSVDTPEDAEATVEEEVYDDPEHVGYDGEEDFENSETTEFSGEEPSYEGSETSLSLEEEQEKSIEERKKVFKDVLLCLNMDRSRKVLPDFVKQFSLDRGCKWTPESPGDLAWNFLMKVQARDVTARDSILSHKVLDEDSKEDLLAGVENLEIRDIQTINPLDVLCATMLCSDSSLQRQVMSNMYQCQFALPLLLPDAENNKSILMLGAMKDIVKKQSTQFSGGPTEDTEKFLTLMKMPVISFVRLGYCSFSKSRILNTLLSPAQLKLHKIFLHQDLPLLVLPRQISDGLVEITWCFPDSDDRKENPFFQKPVALANLRGNLESFWTQFGFLMEVSSAVFFFTDCLGEKEWDLLMFLGEAAIERCYFVLSSQARESEEAQIFQRILNLKPAQLLFWERGDAGDRRKNMEGLQAALQEVMFSSCLRCVSVEDMAALARELGIQVDEDFENTQRIQVSSGENMAGTAEGEGQQRHSQLKSSSKSQALMPIQEPGTQCELSQNLQNLYGTPVFRPVLENSWLFPTRIGGNFNHVSLKASWVMGRPFGSEQRPKWFHPLPFQNAGAQGRGKSFGIQSFHPQIFYSGERFMKFSRVARGCHSNGTFGRLPRPICQHVQACPERPQMMGTLERSRAVASKIGHSYSLDSQPARAVGKPWPQQACTRVTELTEATGKLIRTSHIGKPHPQSFQPAAATQKLRPASQQGVQMKTQGGASNPALQIGSHPMCKSSQFKSDQSNPSTVKHSQPKPFHSVPSQPKSSQTKSCQSQPSQTKPSPCKSTQPKPSQPWPPQSKPSQPRPPQPKSSSTNPSQAKAHHSKAGQKRGGKH

The variants in the test derive from B1. The conditions noted are these: with ripk2_human RIPK2, O43353.
Sequence of ripk2_human RIPK2, O43353 (O43353 whole entry): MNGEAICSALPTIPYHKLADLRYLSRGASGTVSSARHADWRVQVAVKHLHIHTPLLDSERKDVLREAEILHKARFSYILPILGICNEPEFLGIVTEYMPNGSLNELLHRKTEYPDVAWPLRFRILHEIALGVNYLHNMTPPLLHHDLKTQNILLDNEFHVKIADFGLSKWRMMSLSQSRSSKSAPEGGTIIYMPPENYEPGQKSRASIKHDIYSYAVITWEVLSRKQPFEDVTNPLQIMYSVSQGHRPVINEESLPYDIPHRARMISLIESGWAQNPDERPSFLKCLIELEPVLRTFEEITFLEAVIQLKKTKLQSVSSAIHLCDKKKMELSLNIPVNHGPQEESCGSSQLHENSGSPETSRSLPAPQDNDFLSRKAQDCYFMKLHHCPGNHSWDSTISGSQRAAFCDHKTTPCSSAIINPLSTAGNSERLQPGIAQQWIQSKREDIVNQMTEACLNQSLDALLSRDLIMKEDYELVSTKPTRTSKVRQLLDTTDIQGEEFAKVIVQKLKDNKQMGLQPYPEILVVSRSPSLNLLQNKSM
As for L30R;D31N;L33R, the “effect of a mutation on the interaction” value is recorded as “increasing interaction strength”.
